Test results as given in US20030191083.

Molecular target: T1, RNase P protein (SPP, SP protein) (Staphylococcus aureus) (UniProt A8YYS2)
T1 sequence: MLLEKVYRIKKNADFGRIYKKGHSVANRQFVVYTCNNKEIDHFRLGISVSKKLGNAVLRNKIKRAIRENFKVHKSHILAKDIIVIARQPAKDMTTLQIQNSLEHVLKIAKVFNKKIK
Test: filter

GUUCUGAUAUUUUGGGUAAUCGCUAUAUUAUAUAGAGGAAAGUCCAUGCUCACACAGUCUGAGAUGAUUGUAGUGUUCGUGCUUGAUGAAACAAUAAAUCAAGGCAUUAAUUUGACGGCAAUGAAAUAUCCUAAGUCUUUCGAUAUGGAUAGAGUAAUUUGAAAGUGCCACAGUGACGUAGCUUUUAUAGAAAUAUAAAAGGUGGAACGCGGUAAACCCCUCGAGUGAGCAAUCCAAAUUUGGUAGGAGCACUUGUUUAACGGAAUUCAACGUAUAAACGAGACACACUUCGCGAAAUGAAGUGGUGUACGACAGAUGGUUAUCACCUGAGUACCAGUGUGACUAGUGCACGUGAUGAGUACGAUGGAACAGAACAUGGCUUAUAGAAAUAUCACUACUA [S. aureus RNase P RNA (SP RNA)]
Kd (20 mM K-Hepes pH 8.0, 0.01% NP40, 400 mM NH4OAc, 10 mM MgCl2, 5% glycerol, at least three experiments): 8 nM
Kd (binding constant of the complex stated in summary, filter binding and gel shift, differs from 8 nM in p322): 20 nM
